Reference: US20110223155A1
One block for each substance: values may come before it.

Columns and labels:
[1] = molecular target: human Notch1-LD/Fc (LIN/dimerization domain fused to Fc region at the carboxyl terminus) (human) (UniProt P46531); assay: ELISA on coated Notch1-LD/Fc
[2] = molecular target: Notch3-LD/Fc fusion protein (Notch3 LIN12/dimerization domain fused to human gamma 1 Fc) (human) (UniProt Q9UM47); assay: ELISA on coated Notch3-LD/Fc
[3] = molecular target: full-length human Notch3 receptor expressed on cells (human) (UniProt Q9UM47); assay: cell-based or functional assay

Chain of UniProt P46531 (P46531 1440-1735 limits assumed, form in doubt): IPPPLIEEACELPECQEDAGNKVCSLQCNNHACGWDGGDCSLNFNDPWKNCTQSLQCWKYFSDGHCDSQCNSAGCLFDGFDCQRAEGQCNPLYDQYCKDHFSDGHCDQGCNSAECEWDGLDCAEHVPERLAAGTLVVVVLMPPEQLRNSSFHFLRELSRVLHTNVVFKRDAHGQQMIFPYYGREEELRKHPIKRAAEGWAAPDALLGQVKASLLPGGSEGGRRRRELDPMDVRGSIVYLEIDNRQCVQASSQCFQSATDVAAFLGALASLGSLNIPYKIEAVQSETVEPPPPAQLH

ELISA OD reading (mean) [1]: 0.066 OD 450 nm
ELISA OD reading (mean) [2]: 0.064 OD 450 nm
Substance: Control IgG1 (irrelevant IgG1 monoclonal antibody)

luciferase activity (CBF1-Luc reporter) of NC85 cells cocultured with Jagged1/293T, against coculture with PCDNA 3.1/293T [3]: 2 to 4 fold
Substance: human Jagged1 expressed on 293T cells (Jagged1/293T) (from UniProt P78504 34-1218) (ligand)

luciferase activity (CBF1-Luc reporter) of NC85 cells cocultured with Jagged2/293F, against coculture with PCDNA 3.1/293T [3]: 2 to 4 fold
Substance: human Jagged2 expressed on 293 cells (Jagged2/293F) (from UniProt Q9Y219 24-1238) (ligand)
